Non-standard residues stand in square brackets, D forms with d. No end group written: not given here. pGlu = O=C1CC[C@@H](C(=O)O)N1
B1: peptide C1A2-03 (…) (peptide)
peptide: QSLQEETVRK
B2: peptide C1A2-02 (J…) (peptide)
peptide: [pGlu]SLQEETVRK

Tests used:
S24201 antibody [1] = assay: competitive ELISA; coated C1A2-01-BSA (printed C1A1-02-BSA), S24201 125 ng/mL, competitive peptide 8 ng/ml
S24201 antibody [2] = assay: competitive ELISA; coated C1A2-01-BSA (printed C1A1-02-BSA), S24201 125 ng/mL, competitive peptide 40 ng/ml
S24201 antibody [3] = assay: competitive ELISA; coated C1A2-01-BSA (printed C1A1-02-BSA), S24201 125 ng/mL, competitive peptide 1.6 ng/ml
S24201 antibody [4] = assay: competitive ELISA; coated C1A2-01-BSA (printed C1A1-02-BSA), S24201 125 ng/mL, competitive peptide 200 ng/ml
S24201 antibody [5] = assay: competitive ELISA; coated C1A2-01-BSA (printed C1A1-02-BSA), S24201 125 ng/mL, competitive peptide 0.32 ng/ml
S24201 antibody [6] = assay: competitive ELISA; coated C1A2-01-BSA (printed C1A1-02-BSA), S24201 125 ng/mL, competitive peptide 1000 ng/ml
S24201 antibody [7] = assay: competitive ELISA; coated C1A2-01-BSA (printed C1A1-02-BSA), S24201 125 ng/mL, competitive peptide 5000 ng/ml
S24201 antibody [8] = assay: competitive ELISA; coated C1A2-01-BSA (printed C1A1-02-BSA), S24201 125 ng/mL, competitive peptide 0 ng/ml (baseline without competitor)

Binder	Absorbance at wavelength 492 nm (absorbance at 492 nm) (S24201 antibody [1])	Absorbance at wavelength 492 nm (absorbance at 492 nm) (S24201 antibody [2])	Absorbance at wavelength 492 nm (absorbance at 492 nm) (S24201 antibody [3])	Absorbance at wavelength 492 nm (absorbance at 492 nm) (S24201 antibody [4])	Absorbance at wavelength 492 nm (absorbance at 492 nm) (S24201 antibody [5])	Absorbance at wavelength 492 nm (absorbance at 492 nm) (S24201 antibody [6])	Absorbance at wavelength 492 nm (absorbance at 492 nm) (S24201 antibody [7])	Absorbance at wavelength 492 nm (absorbance at 492 nm) (S24201 antibody [8])
B1	0.681	0.693	0.7	0.652	0.706	0.521	0.313	0.702
B2	0.668	0.541	0.735	0.306	0.712	0.142	0.074	0.752
